Experimental data reported in patent US20180327493A1.
Values belong to the binder of their own block, whether it stands above or below them.

Target: human CD84 on cells (primary CLL cells, Ramos cells, Daudi cells) (human), Q9UIB8
Test: cell-based or functional assay

Sequence of human CD84 on cells (primary CLL cells, Ramos cells, Daudi cells) (human), Q9UIB8 (Q9UIB8 22-345): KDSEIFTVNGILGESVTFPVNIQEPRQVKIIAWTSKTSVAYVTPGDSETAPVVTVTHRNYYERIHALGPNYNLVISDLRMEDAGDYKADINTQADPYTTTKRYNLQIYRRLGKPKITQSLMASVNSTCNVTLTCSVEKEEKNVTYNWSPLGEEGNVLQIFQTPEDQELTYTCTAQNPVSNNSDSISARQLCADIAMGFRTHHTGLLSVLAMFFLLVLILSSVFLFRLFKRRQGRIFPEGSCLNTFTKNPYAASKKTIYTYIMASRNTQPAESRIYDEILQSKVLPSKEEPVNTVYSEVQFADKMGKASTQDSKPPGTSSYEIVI

% apoptosis, Ramos cells (Magic Red, FACS): 39 % apoptosis
% apoptosis, purified CLL cells (Magic Red, FACS): 75 % apoptosis
annexin positive total population of CLL cells (Annexin 7AAD staining): 55.8%
B1: anti-CD84 antibody from the B4 hybridoma (antibody)
heavy: EVKLVESGAELARPGASVKLSCKASGYTFTSYWMQWVKQRPGQGLEWIGAIYPGDGDTRYTQKFKGKATLTADKSSSTAYMQLSSLASEDSAVYYCARLLRTYWYFDVWGAGTTVTVSSFEAKTTAPSVYPLAPVCGDTTGSSVTLGCLVKGYFPEPVTLTWNSGSLSSGVHTFPAVLQSDLYTLSSSVTVTSSTWPSQSITCNVAHPASSTKVDKKIEPRGPTIKPCPPCKCPAPNLLGGPSVFIFPPKIKDVLMISLSPIVTCVVVDVSEDDPDVQISWFVNNVEVHTAQTQTHREDYNSTLRVVSALPIQHQDWMSGKEFKCKVNNKDLPAPIERTISKPKGSVRAPQVYVLPPPEEEMTKKQVTLTCMVTDFMPEDIYVEWTNNGKTELNYKNTEPVLDSDGSYFMYSKLRVEKKNWVERNSYSCSVVHEGLHNHHTTKSFSRTPGK
light: DIVLTQSHKFMSTSVGDRVSITCKASQDVGTAVAWYQQKPGQSPKLLIYWASTRHTGVPDRFTGSGSGTDFTLTISNVQSEDLADYFCQQYSSYPYTFGGGTKLELKRRTRADAAPTVSIFPPSSEQLTSGGASVVCFLNNFYPKDINVKWKIDGSERQNGVLNSWTDQDSKDSTYSMSSTLTLTKDEYERHNSYTCEATHKTSTSPIVKSFNRNEC

% apoptosis, Ramos cells (Magic Red, FACS): 45 % apoptosis
% apoptosis, purified CLL cells (Magic Red, FACS): 73 % apoptosis
B2: anti-CD84 antibody from the B1 hybridoma (antibody)
heavy: EVKLVESGGGLVQPGGSRKLSCAASGFTFSSFGMHWVRQAPEKGLEWVAYISSGSSTIYYADTVKGRFTISRDNPKNTLFLQMTSLRSEDTAMYYCARWGWTGTGLDYWGQGTTLTVSSFEAKTTPPSVYPLAPGSAAQTNSMVTLGCLVKGYFPEPVTVTWNSGSLSSGVHTFPAVLQSDLYTLSSSVTVPSSTWPSETVTCNVAHPASSTKVDKKIVPRDCGCKPCICTVPEVSSVFIFPPKPKDVLTITLTPKVTCVVVDISKDDPEVQFSWFVDDVEVHTAQTQPREEQFNSTFRSVSELPIMHQDWLNGKEFKCRVNSAAFPAPIEKTISKTKGRPKAPQVYTIPPPKEQMAKDKVSLTCMITDFFPEDITVEWQWNGQPAENYKNTQPIMDTDGSYFVYSKLNVQKSNWEAGNTFTCSVLHEGLHNHHTEKSLSHSPGK
light: DIVLTQSPALMAASPGEKVTITCSVSSSISSSNLHWYQQKSETSPKPWIYGTSNLASGVPVRFSGSGSGTSYSLTISSMEAEDAATYYCQQWSSYPFTFGSGTKLEIKRRTRADAAPTVSIFPPSSEQLTSGGASVVCFLNNFYPKDINVKWKIDGSERQNGVLNSWTDQDSKDSTYSMSSTLTLTKDEYERHNSYTCEATHKTSTSPIVKSFNRNEC
